For test [1], the target named is CS1-BCMA-41BB-CD3 CAR (bispecific CS1-BCMA chimeric antigen receptor), expressed on T cells. The test can be described thus: FACS, donor #890 T cells, goat anti-mouse F(ab)2 staining. A general note: Flow cytometry measures light scatter and fluorescence of single cells or particles in a stream.
Test [2] addresses BCMA-41BB-CD3-CAR (monospecific BCMA CAR), expressed on T cells. The test can be described thus: FACS, donor #57 single BCMA CAR-T cells, goat anti-mouse F(ab)2 staining.
For test [3], the target named is CS1-BCMA-41BB-CD3 CAR (bispecific CS1-BCMA chimeric antigen receptor), expressed on T cells. The test can be described thus: FACS, donor #57 T cells, goat anti-mouse F(ab)2 staining.
Test [4] deals with monospecific CS1 CAR, expressed on T cells. The test can be described thus: FACS, donor #57 CS1 CAR-T cells; detection reagent not named in the sentence (taken as anti-mouse F(ab)2).
Test [5] has as its target CS1-BCMA-41BB-CD3 CAR (bispecific CS1-BCMA chimeric antigen receptor), expressed on T cells. The test can be described thus: FACS of CAR-transduced T cells stained with biotinylated goat anti-mouse F(ab)2 and PE-streptavidin.

Chain of CS1-BCMA-41BB-CD3 CAR (bispecific CS1-BCMA chimeric antigen receptor), expressed on T cells (chain, as listed by the source mutant): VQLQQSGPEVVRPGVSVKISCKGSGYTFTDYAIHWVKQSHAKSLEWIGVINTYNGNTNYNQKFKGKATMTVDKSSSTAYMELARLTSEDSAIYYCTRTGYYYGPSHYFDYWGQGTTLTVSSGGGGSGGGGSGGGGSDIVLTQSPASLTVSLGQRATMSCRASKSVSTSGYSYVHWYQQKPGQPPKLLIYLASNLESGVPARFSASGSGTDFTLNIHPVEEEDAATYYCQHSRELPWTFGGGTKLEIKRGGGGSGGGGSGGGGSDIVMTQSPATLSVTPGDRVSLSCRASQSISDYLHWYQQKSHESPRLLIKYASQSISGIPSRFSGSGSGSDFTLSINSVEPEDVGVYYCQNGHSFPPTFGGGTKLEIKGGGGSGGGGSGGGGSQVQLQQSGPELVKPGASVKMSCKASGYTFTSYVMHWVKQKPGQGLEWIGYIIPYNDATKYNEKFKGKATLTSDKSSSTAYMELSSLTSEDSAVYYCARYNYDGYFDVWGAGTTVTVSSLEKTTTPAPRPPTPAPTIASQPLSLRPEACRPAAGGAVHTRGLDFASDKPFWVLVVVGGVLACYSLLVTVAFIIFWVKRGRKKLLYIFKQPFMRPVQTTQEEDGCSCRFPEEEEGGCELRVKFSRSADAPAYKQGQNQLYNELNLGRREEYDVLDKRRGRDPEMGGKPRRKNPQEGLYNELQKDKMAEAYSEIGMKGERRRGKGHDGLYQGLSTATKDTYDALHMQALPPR

In test [1], “Biotin-labeled polyclonal goat anti-mouse F(ab)2 antibody (Life Technologies)” showed a proportion of CAR+ cells detected of 81%. Besides, the proportion of CAR cells detected in test [2] was 57%; in test [3], more than 70%. The same substance yielded a percentage of CAR+ cells in test [4] of 68%. Also, the percentage of CAR+ cells detected in test [5] is more than 95%.
